Data: article PMC3400628 (PLoS ONE, 2012)

Molecular target: T1, Flag-NOD2 (human, UniProt Q9HC29 1-1040)
T1 construct: NOD2, human; The deletion constructs count up to aa 1040, the length of whole NOD2; also called NOD2 WT; Flag-NOD2 WT; source: HEK293T, transfected, in lysate; not shown: Flag, N-terminal, kept
Conditions: partners not purified

B1: myc-TRIM27 WT (natural protein, human, UniProt P14373 1-513, looked up)
chain: MASGSVAECLQQETTCPVCLQYFAEPMMLDCGHNICCACLARCWGTAETNVSCPQCRETFPQRHMRPNRHLANVTQLVKQLRTERPSGPGGEMGVCEKHREPLKLYCEEDQMPICVVCDRSREHRGHSVLPLEEAVEGFKEQIQNQLDHLKRVKDLKKRRRAQGEQARAELLSLTQMEREKIVWEFEQLYHSLKEHEYRLLARLEELDLAIYNSINGAITQFSCNISHLSSLIAQLEEKQQQPTRELLQDIGDTLSRAERIRIPEPWITPPDLQEKIHIFAQKCLFLTESLKQFTEKMQSDMEKIQELREAQLYSVDVTLDPDTAYPSLILSDNLRQVRYSYLQQDLPDNPERFNLFPCVLGSPCFIAGRHYWEVEVGDKAKWTIGVCEDSVCRKGGVTSAPQNGFWAVSLWYGKEYWALTSPMTALPLRTPLQRVGIFLDYDAGEVSFYNVTERCHTFTFSHATFCGPVRPYFSLSYSGGKSAAPLIICPMSGIDGFSGHVGNHGHSMETSP
notes: TRIM27, human, full length (aa 1-513 by the deletion constructs); cDNA from ImaGenes; also called RFP; source: HEK293T, transfected, in lysate; not shown: 3xmyc, N-terminal, kept
Q: For B1, which “fold change of TRIM27 co-precipitated with NOD2 at 3 h after 10 µM MDP against untreated controls” value is on record?
A: Its value is greater than 2 fold.
